Measurements: patent US20040091475A1 (Chugai, published 2004)

Key:
[1] = molecular target: human TPO receptor (MPL) expressed on Ba/F3 cells (human) (UniProt P40238); experiment: cell-based or functional assay
[2] = molecular target: T1, human Integrin Associated Protein (IAP) expressed on mouse leukemia cell line L1210 (human, UniProt Q08722 19-323); experiment: flow cytometry on L1210 cells expressing human IAP; COS7 culture supernatant; FITC-labeled anti-human IgG antibody
T1 construct: whole, on cells; also called human IAP; hIAP/L1210
T1 sequence (Q08722 19-323): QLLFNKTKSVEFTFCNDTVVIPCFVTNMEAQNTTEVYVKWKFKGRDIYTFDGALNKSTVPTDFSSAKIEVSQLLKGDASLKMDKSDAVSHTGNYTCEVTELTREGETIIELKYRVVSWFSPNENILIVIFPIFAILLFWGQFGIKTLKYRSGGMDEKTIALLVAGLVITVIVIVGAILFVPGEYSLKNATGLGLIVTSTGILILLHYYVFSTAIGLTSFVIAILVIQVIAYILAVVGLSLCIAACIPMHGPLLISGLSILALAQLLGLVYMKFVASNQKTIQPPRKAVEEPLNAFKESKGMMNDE

[3] = molecular target: T1, human Integrin Associated Protein (IAP) …; experiment: as above; remark: listed apart in the source
[4] = molecular target: T1, human Integrin Associated Protein (IAP) …; experiment: flow cytometry, 10 µg/ml antibody on L1210 cells expressing human IAP (panel B), pCOS1/L1210 cells as control (panel A); FITC-labeled anti-mouse IgG antibody
Procedure: Flow cytometry was performed using the purified dimer of MABL2-scFv <HL-5> and the purified sc(Fv)₂ in order to evaluate the binding to human Integrin Associated Protein (IAP) antigen. 10 μg/ml of the purified dimer of MABL2-scFv <HL-5>, the purified sc(Fv)₂, the antibody MABL-2 as a positive control or a mouse IgG (Zymed) as a negative control was added to 2×10⁵ cells of the mouse leukemia cell line L1210 expressing human IAP (hIAP/L1210) or the cell line L1210 transformed with pCOS1 (pCOS1/L1210) as a control. After incubating on ice and washing, 10 μg/mL of the mouse anti-FLAG antibody (SIGMA) was added and then the cells were incubated and washed. FITC labeled anti-mouse IgG antibody (BECTON DICKINSON) was added thereto and the cells were incubated and washed again. Then the fluorescence intensity was measured using the FACScan apparatus (BECTON DICKINSON).

[5] = molecular target: T2, human TPO receptor (MPL) expressed on Ba/F3 cells (human, UniProt P40238 26-635); experiment: cell-based or functional assay
T2 sequence (looked up): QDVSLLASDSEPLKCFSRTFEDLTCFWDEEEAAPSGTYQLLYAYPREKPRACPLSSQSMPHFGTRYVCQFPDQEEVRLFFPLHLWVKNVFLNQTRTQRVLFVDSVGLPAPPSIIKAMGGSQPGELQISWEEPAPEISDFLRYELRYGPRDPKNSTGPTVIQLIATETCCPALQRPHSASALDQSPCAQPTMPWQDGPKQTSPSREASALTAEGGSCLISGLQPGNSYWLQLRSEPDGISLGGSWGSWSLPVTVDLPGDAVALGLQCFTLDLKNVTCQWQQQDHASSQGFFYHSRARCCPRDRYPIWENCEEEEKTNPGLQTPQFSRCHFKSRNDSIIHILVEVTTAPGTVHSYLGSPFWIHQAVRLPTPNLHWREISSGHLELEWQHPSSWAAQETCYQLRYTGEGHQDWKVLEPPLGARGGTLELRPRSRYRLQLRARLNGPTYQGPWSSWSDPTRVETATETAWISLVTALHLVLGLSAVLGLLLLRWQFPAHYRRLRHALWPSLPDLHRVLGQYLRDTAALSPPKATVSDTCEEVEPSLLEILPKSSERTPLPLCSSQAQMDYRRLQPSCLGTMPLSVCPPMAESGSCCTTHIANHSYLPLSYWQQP

[6] = molecular target: T1, human Integrin Associated Protein (IAP) …; experiment: flow cytometry on L1210 cells expressing human IAP; COS7 culture supernatant; mouse anti-FLAG antibody, then FITC-labeled anti-mouse IgG antibody
Procedure: Flow cytometry was performed using the culture supernatants of COS7 cells prepared in Example 6.3 (1) to measure the binding of the MABL2-scFVs and sc(Fv)₂ to human Integrin Associated Protein (IAP) antigen. The culture supernatants to be tested or a culture supernatant of COS7 cells as a control was added to 2×10⁵ cells of the mouse leukemia cell line L1210 expressing human IAP. After incubating on ice and washing, 10 μg/mL of the mouse anti-FLAG antibody (SIGMA) was added and then the cells were incubated and washed. Then, the FITC labeled anti-mouse IgG antibody (BECTON DICKINSON) was added thereto and the cells were incubated and washed again. The fluorescence intensity was measured using the FACScan apparatus (BECTON DICKINSON).

human TPO (R&D Systems) (from UniProt P40225 22-353) (ligand)
proliferation of Ba/F3 cells expressing human TPO receptor (BaF/mpl), WST-8; ED50 [1]: 0.027 nM

B1: chimera MABL-1 antibody (antibody, V domains shown)
VH: QVQLQQSGPDLVKPGASVKMSCKASGYTFVNHVMHWVKQKPGQGLEWIGYIYPYNDGTKYNEKFKGKATLTSEKSSSAAYMELSSLASEDSAVYYCARGGYYSYDDWGQGTTLTVSS
VL: DVVMTQTPLSLPVSLGDQASISCRSSQSLLHSKGNTYLQWYLQKPGQSPKLLIYKVSNRFSGVPDRFSGSGSGTDFTLKISRVEAEDLGVYFCSQSTHVPYTSGGGTKLEIK
notes: Mouse MABL-1 V regions cloned into HEF-gamma and HEF-kappa expression vectors (human constant regions); tested as COS7 culture supernatant
binding result [2]: binds

B2: chimera MABL-2 antibody (antibody, V domains shown)
VH: QVQLQQSGPELVKPGASVKMSCKASGYTFANHVIHWVKQKPGQGLEWIGYIYPYNDGTKYNEKFKDKATLTSDKSSTTAYMDLSSLASEDSAVYYCARGGYYTYDDWGQGTTLTVSS
VL: DVVMTQSPLSLPVSLGDQASISCRSSQSLVHSNGKTYLHWYLQKPGQSPKLLIYKVSNRFSGVPDRFSGSGSVTDFTLMISRVEAEDLGVYFCSQSTHVPYTFGGGTKLEIK
notes: Mouse MABL-2 V regions cloned into HEF-gamma and HEF-kappa expression vectors (human constant regions); tested as COS7 culture supernatant
binding result [3]: binds

B3: mouse monoclonal antibody MABL-2 (antibody, V domains shown)
VH: QVQLQQSGPELVKPGASVKMSCKASGYTFANHVIHWVKQKPGQGLEWIGYIYPYNDGTKYNEKFKDKATLTSDKSSTTAYMDLSSLASEDSAVYYCARGGYYTYDDWGQGTTLTVSS
VL: DVVMTQSPLSLPVSLGDQASISCRSSQSLVHSNGKTYLHWYLQKPGQSPKLLIYKVSNRFSGVPDRFSGSGSVTDFTLMISRVEAEDLGVYFCSQSTHVPYTFGGGTKLEIK
notes: Whole mouse antibody from hybridoma MABL-2 (H chain amplified with the MHC-gamma2a primer, kappa L chain); also called MABL-2 (intact)
binding result [4]: binds

B4: antibody 12B5 (IgG) (antibody, V domains shown)
VH: QVQLVQSGGGLVRPGGSLSLSCAVSGITLRTYGMHWVRQAPGKGLEWVAGISFDGRSEYYADSVQGRFTISRDSSKNTLYLQMNSLRAEDTAVYYCARGAHYGFDIWGQGTMVTVSS
VL: DIQMTQSPSTLSASIGDRVTITCRASEGIYHWLAWYQQKPGKAPKLLIYKASSLASGAPSRFSGSGSGTDFTLTISSLQPDDFATYYCQQYSNYPLTFGGGTKLEIK
TPO-like agonist activity: proliferation of Ba/F3 cells expressing human TPO receptor (BaF/mpl), WST-8; ED50 [5]: 29 nM

B5: 12B5Fab fragment (Fab, V domains shown)
VH: QVQLVQSGGGLVRPGGSLSLSCAVSGITLRTYGMHWVRQAPGKGLEWVAGISFDGRSEYYADSVQGRFTISRDSSKNTLYLQMNSLRAEDTAVYYCARGAHYGFDIWGQGTMVTVSS
VL: DIQMTQSPSTLSASIGDRVTITCRASEGIYHWLAWYQQKPGKAPKLLIYKASSLASGAPSRFSGSGSGTDFTLTISSLQPDDFATYYCQQYSNYPLTFGGGTKLEIK
TPO-like agonist activity: proliferation of Ba/F3 cells expressing human TPO receptor (BaF/mpl), WST-8; ED50 [5]: 34700 nM

B6: reconstructed 12B5 single chain Fv (sc12B5), culture supernatant of COS-7 cells (scFv)
scFv: QVQLVQSGGGLVRPGGSLSLSCAVSGITLRTYGMHWVRQAPGKGLEWVAGISFDGRSEYYADSVQGRFTISRDSSKNTLYLQMNSLRAEDTAVYYCARGAHYGFDIWGQGTMVTVSSGGGGSGGGGSGGGGSDIQMTQSPSTLSASIGDRVTITCRASEGIYHWLAWYQQKPGKAPKLLIYKASSLASGAPSRFSGSGSGTDFTLTISSLQPDDFATYYCQQYSNYPLTFGGGTKLEIKDYKDDDDK
TPO-like agonist activity: proliferation of Ba/F3 cells expressing human TPO receptor (BaF/mpl), WST-8; ED50 [5]: 75 nM

B7: sc12B5 monomer (scFv)
scFv: QVQLVQSGGGLVRPGGSLSLSCAVSGITLRTYGMHWVRQAPGKGLEWVAGISFDGRSEYYADSVQGRFTISRDSSKNTLYLQMNSLRAEDTAVYYCARGAHYGFDIWGQGTMVTVSSGGGGSGGGGSGGGGSDIQMTQSPSTLSASIGDRVTITCRASEGIYHWLAWYQQKPGKAPKLLIYKASSLASGAPSRFSGSGSGTDFTLTISSLQPDDFATYYCQQYSNYPLTFGGGTKLEIKDYKDDDDK
TPO-like agonist activity: proliferation of Ba/F3 cells expressing human TPO receptor (BaF/mpl), WST-8; ED50 [5]: 4440 nM

B8: sc12B5 dimer (scFv)
scFv: QVQLVQSGGGLVRPGGSLSLSCAVSGITLRTYGMHWVRQAPGKGLEWVAGISFDGRSEYYADSVQGRFTISRDSSKNTLYLQMNSLRAEDTAVYYCARGAHYGFDIWGQGTMVTVSSGGGGSGGGGSGGGGSDIQMTQSPSTLSASIGDRVTITCRASEGIYHWLAWYQQKPGKAPKLLIYKASSLASGAPSRFSGSGSGTDFTLTISSLQPDDFATYYCQQYSNYPLTFGGGTKLEIKDYKDDDDK
TPO-like agonist activity: fold against monovalent sc12B5 [5]: ~400 fold | TPO-like agonist activity: proliferation of Ba/F3 cells expressing human TPO receptor (BaF/mpl), WST-8; ED50 [5]: 10.1 nM

B9: antibody MABL-2 sc(Fv)2 (scFv)
chain: QVQLQQSGPELVKPGASVKMSCKASGYTFANHVIHWVKQKPGQGLEWIGYIYPYNDGTKYNEKFKDKATLTSDKSSTTAYMDLSSLASEDSAVYYCARGGYYTYDDWGQGTTLTVSSGGGGSGGGGSGGGGSDVVMTQSPLSLPVSLGDQASISCRSSQSLVHSNGKTYLHWYLQKPGQSPKLLIYKVSNRFSGVPDRFSGSGSVTDFTLMISRVEAEDLGVYFCSQSTHVPYTFGGGTKLEIKGGGGSGGGGSGGGGSVDSQVQLQQSGPELVKPGASVKMSCKASGYTFANHVIHWVKQKPGQGLEWIGYIYPYNDGTKYNEKFKDKATLTSDKSSTTAYMDLSSLASEDSAVYYCARGGYYTYDDWGQGTTLTVSSGGGGSGGGGSGGGGSDVVMTQSPLSLPVSLGDQASISCRSSQSLVHSNGKTYLHWYLQKPGQSPKLLIYKVSNRFSGVPDRFSGSGSVTDFTLMISRVEAEDLGVYFCSQSTHVPYTFGGGTKLEIKDYKDDDDK
notes: Single chain polypeptide with two H chain V regions and two L chain V regions of MABL-2, FLAG at the C-terminus; eluted at the position of the monomer; also called pCHOM2(Fv)2
binding result [6]: binds
